Laboratory results published in the DeepSol protein solubility set.

assay: soluble on expression in E. coli; label from the status in PepcDB or PDB records

| Sequence | soluble on expression in E. coli |
| --- | --- |
| IDRKVLSQLRNRFLSLNDGRYARALEGMSTRQQSVLTLLPLFFHVNHPLLPGYVSGSTPAGVSHYEPDTLALAEAQRLTRSFSYKARHGNPPQPIHGLFLMGSLGTLAQADQSDMDVWVCHDSELDLEAIAELRKKCQALEAWAATMGAEAHFFLIDPQRFKSGERDSQLSSDDCGTTQHYLLLDEFYRTAIWLAGRTPMWWMVPVYEEQNYEDYTYTLLSKRFIRASEVLDLGPMSHIPATEFIGAGLWQLFKGIGSPYKSVLKLLLIEVYSSEHPRVQCLSLRFKQAVFANQLDLDELDPYVVVYRRIEEHLQARNEPERLELVRRSLYLKVNKKLTGSTRQRNIGWQRLLLARLTSEWGWDERQLTLLDSRSQWKVRQVASERRALVNELNYSYRFQTRFARAQSTADTLDARDLTILGRRLYAAYERKAGKVEFINPGIAPDLAEDTLTLVHSPDKREPGKHQWALYNGNLGIHEWANFSPIKRSRELLELLAWCHRNNVIDTTTRVALHPGTSDLSEFELFNLLGALQQSIELPLPEVSDDELLKPSAPSEILLLINVGVDPLRHHRDLNILMTTERTDSLSYAGVRENLVLTLDQITLNTWNETLVSRYDGPHALLDCMSELLGSLPTSGKQPQIRVRCFCHNRASAIAQRVEELISTAQLLLARQLNHRYLIQVQQQYHVLEIKPGQVGHVVVNSLPGLFKYLGEELPRYSPLHLDPQALDGHDLALILPLGQPECIQVFYRINEPDADLYVLDEHNSLWHQRVPYHDEQSLLTPLQRFFHSLVYRRGASLPLDD | not soluble |
| MSLTSQPREQFLLISALGPNPMELTTLLCRACVESRCAVVSSRLTRHGEFSALVLQISGSWDALARLEGSLPALTKRGDITLSMTRSNAHVTRAQALPYVAYVSAVYRPDILNELCQFFIDHNIELENLTCDTYQAPHTNTTMLNATITVTLPAGTQISWLRDQFLDFADALNLDALIEPWREGGSHHHHHH | soluble |
| MGHQNAAVSENQNHDDGAASSPGFKLVGFSKFVRKNPKSDKFKVKRFHHIEFWCGDATNVARRFSWGLGMRFSAKSDLSTGNMVHASYLLTSGDLRFLFTAPYSPSLSAGEIKPTTTASIPSFDHGSCRSFFSSHGLGVRAVAIEVEDAESAFSISVANGAIPSSPPIVLNEAVTIAEVKLYGDVVLRYVSYKAEDTEKSEFLPGFERVEDASSFPLDYGIRRLDHAVGNVPELGPALTYVAGFTGFHQFAEFTADDVGTAESGLNSAVLASNDEMVLLPINEPVHGTKRKSQIQTYLEHNEGAGLQHLALMSEDIFRTLREMRKRSSIGGFDFMPSPPPTYYQNLKKRVGDVLSDDQIKECEELGILVDRDDQGTLLQIFTKPLGDRPTIFIEIIQRVGCMMKDEEGKAYQSGGCGGFGKGNFSELFKSIEEYEKTLEAKQLVG | soluble |
| MGSDKIHHHHHHMYVDEIHVEKCGPLSVGVYGGNQESDAYERGDAVLAWWDPELQFEFVMIFDTHHKTKNIDYIIEAISERKEKLKELFSYPIHLAFHHTHMYLLALFTDELFIEKCDQDDEELACLICLRKGEFLYWLSVGDCFAYLFHSEKTKNGKGRLNKRKNYEYIGRKNIFAANTPCFTSGVRGLEKGMNHIVMATDGILECDKRRFDDDQSLIEILHDGSCLQIEPVLTNVLQWKGRDCATIIGWSIDTENKRCAN | not soluble |
| MIELIDPISKQRLEESPEGLRNENGIVVYPLINGAYRVAASDNYTSNFGLEWNTFQKTQIDKFSGNTVSEERLFAQTNWQKNGLEGETILEVGSGAGRFSQIMLDHTKATLYSVDYSEAVEANYRNNGPHERFKLFQASIYELPFKQASFDRVICLGVLQHTPDFKASVKALVEMVKPGGELVIDFYPIRNVFTKVHGKYLLRPILKRVNHHRLMSLIRNNIDFLISIYTFNRRIGLGVFNRFVPICEIERTLPKGMTPEQLKEWIILDTFDMFSPEYDQPQRLSTVAKWVKEFGMADVDASWVTYHGKLEAPTVRGRKVLEHHHHHH | soluble |
| SAAFPQWTRVDDKRFELALLQIPEGSPNFIENIAYYLQKPVKEVEYYYCALVHDIERIESGKYVLPKYPEDDYVKLTEAGESKGNGKKTGIPWSEEEQRLFLEGLNKFGKGDWKNISRYCVKSRTSTQVASHAQKYFARQKQESTNTKRPSIHDMTLGVAVNVPGSNLESTGQQPHFGDQIPSNQYYPSQENFRGFDQRW | soluble |
| MGSDKIHHHHHHMLPLDSLSDCASKSYLLTHLPDLNHRHLSSSVSTNSELIAAVQDGTLNATAMHLLTAETQSAGRGQHGRSWQSPRGNVYLSLYHPVHIPISGLLSLIIGVELAKMPIIQTLNDQLCAQGLTPIGVKWANDLGFYSYQYHHQSELHKILLANEMTPFHKLAGILIEPVTQAGKLVGIVMGVGLNVQATPKLTAQTCEGMSYQAISLQDIKQLLEPDKSASALLSLRELYQQMSKALMAAMTRFEHLGLEKPTGQTYNLDSFLKQFDSMDALAGLRLRITQEHNGQTETLTGYACGIDTHGCLQLRQDNGNISALFTGRIDVIDNA | not soluble |
| MSIQQIIEQKIQKEFQPHFLAIENESHLHHSNRGSESHFKCVIVSADFKNIRKVQRHQRIYQLLNEELNHSIHALALHLFTPEEWKAQNETVPHSTKCAGIGRLEHHHHHH | soluble |
| MPLTGEYEPSPSKWAADQAELMESTDGAKGTTLGGRPVVLLTTRGAKSGKIRKTPLMRVEHDGTYAIVASLGGAPKNPVWYYNVKAEPHVELRDGSATQDMVAREVTGDERATWWDRAVAAFPDYAEYQKKTDREIPVFVLEPA | not soluble |
| GMDVFSEYLAGIADPFHRERTEEVLTWIKNKYPNLHTEIKWNQPMFTDHGTFIIGFSVSKKHLAVAPEKVTIAHVEDDIVKAGYDYTEQLIRIPWNGPVDYTLLEKMIEFNILDKADCSTFWRK | soluble |
| MSLKMQEPIEDPLSKLTQYSGKTFVIKYGGSIMKNKKAEEAFIKDVKYLRKLGINIVIVHGGGPEISRWLELSGIESRFVDGLRVTDEKVIEIVQMVLSGKINKKLSLQFNIDGVNAVGLSGVDNKLIEATKKYVYKGNETIDIGYVGKVTKVNSEFIKELLKGGQVPVIAPIGCDNKGNVYNINADYAAAFISSALDAEKLIILTDVEGVYRNINDPQSIIHEIDIKDVNYYIKEEIIKGGMIPKVQCCASAIENGTKNVQLIDGRNDHCLINDILNYRGTIISYRSGVKCQKAIEGHHHHHH | soluble |
| MKNIKDEWVQIALDLTSGLSSKDRFERLLSTIRNALKCDASALLLFKNQYFSPLATNGLDGDVIGRRFAISQHPRLEAIARAGDIVRFPSDSDLPDPYDGLIANEERQLQVHSCIGLPLLVNERLIGAVTIDAFDPTQFDSFTNKELRIISALAATSLHTALLMERLENQS | not soluble |
| SNAMKVINVDVAIIGTGTAGMGAYRAAKKHTDKVVLIEGGAYGTTCARVGCMPSKLLIAAADASYHASQTDLFGIQVDRISVNGKAVMKRIQTERDRFVGFVVESVESFDEQDKIRGFAKFLDEHTLQVDDHSQVIAKRIVIATGSRPNYPEFLAAAGSRLLTNDNLFELNDLPKSVAVFGPGVIGLELGQALSRLGVIVKVFGRSGSVANLQDEEMKRYAEKTFNEEFYFDAKARVISTIEKEDAVEVIYFDKSGQKTTESFQYVLAATGRKANVDKLGLENTSIELDKKNSPLFDELTLQTSVDHIFVAGDANNTLTLLHEAADDGKVAGTNAGAYPVIAQGQRRAPLSVVFTEPQVASVGLSLRQIEDLYADQDAANYVVGQVSFEGQGRSRVMGKNKGLLNVYADRTSGEFLGAEMFGPAAEHIGHLLAWARQQQMTVQAMLTMPFYHPVIEEGLRTALRDAQQKLAIEKHDMNEFIMTHDNAMKLVI | soluble |
| MAHHHHHHMPSFFPSMPPCDRAAMLTVCEARRQYLAAHVTQLYANTNPAELWSSIVKYRERNSTELLDTVNSYDELRLSYSGYRKVVYSLVFRVSPEEEKQASVEERESRKKLYFNHPFLSPATFLAFPRAEDGTIPAVPMYAFAAKRLLLYRMRVELELVARVLPPSLQDPATRVTHRLLCPPSSSSPLSNGLTQEDIEAFLYDLLPNLRLVRDMPPWMQPYYLCHASRKFMFMCDTRRTGAISIESMMKSDVFSELLRVFESDANDAIVVFTKGCTVDVAASLVTADAAEDDTIPALVLFHEGEGNNQDDMYIVKTLTDGVVLEVRRGQLYWNSGSTEFLQPDVLCMDNWFSLALMARIYEHFTSLDIDGDGVLTVDELSRYSDGSFTRLVIERAFECHVPHSGKRHIMDYKTYLDFVIATEHAATLPAMKYIWSILDLEENRKFVTVETLRCFCKAIANELIANGLMTDISAQSILSEVIDMINPKWHEWVELDDIVRSGHQATVLPILLSYRNFYAYDCREQTAAAANDEYA | not soluble |
